# Assay results taken from the RNAGym collection of RNA variant scans (doi:10.1073/pnas.2313332121).
# B1: TPR t1 (parent)
# chain: GACCAAUCUGCCCUCAGAGCUCGAGAACAUCUUCGGAUGCAGAGGAGGCAGGCUUCGGUGGCGCGAUAGCGCCAACGUCCUCAACCUCCAAUGCAUCCCACCACAUGAUGAUGCCUGAAGAGCCUUGGUUUUUUG
# Variants of: B1
# Experiment: polymerase ribozyme fitness, log enrichment relative to wild type (log ratio); higher = more active; in vitro selection for triplet polymerase activity
# In short: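 For each subunit of a heterodimeric triplet polymerase ribozyme, a mutant library was built by PCR and transcribed, then taken through a single in vitro selection round in triplicate. Selection involved annealing to a biotinylated primer, the partner subunit and triplets, incubation frozen at −7 °C, gel excision of extended constructs, capture on streptavidin beads and RT-PCR. Genotypes were retained after Illumina sequencing of inputs and outputs only with ≥10 input reads and ≥1 read in each output. Fitness is defined as the logarithm of a genotype's enrichment relative to wild-type enrichment, using inverse-variance-weighted averages across replicates, with the logarithm taken to base 2.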
row,Variant,polymerase ribozyme fitness (log ratio)
1,U7A C8G G45A U112A,1.66
2,G71C A100U G120U,-1.67
3,U7G C34U G58A,-5.02
4,C22U G93U,-5.26
5,C40G G52A G117A,-2.65
6,C11A C98U U125A,-2.97
7,C49U A84C,-1.9
8,U14G C15U C20G C70U C123A,-5.25
9,C12A A37U U78C C82U A108G,-3.38
10,C22G C114A,-3.01
11,C3U C40A C56U G120A,-0.0248
12,G23U,-6.05
13,U7A A26U,-2.56
14,U59A C82G,-0.809
15,G19U G60A G110U,-6.37
16,A50G G128C,-1.8
17,C4U G52U G61C C124G U131G,-0.648
18,C34U C73A C102U C123A,-3.14
19,A46U A66G C123A,-2.03
20,C40U G110U,-2.35
21,U33A C97U,-5.53

row,Variant,polymerase ribozyme fitness (log ratio)
1,C13A G71U A119G,-1.25
2,A6G C72U U112G,0.809
3,G10A U106A,0.457
4,U7A C11A G117A,-2.2
5,G93A U112C,0.676
6,G69U C94U G120A,1.2
7,C53G C79U G122A,-3.43
8,G47C U133G,-1.54
9,A24G A29U G45A G47C G77C U129A,-5.43
10,A74U U92G,-3.01
11,C72A C115G,-2.29
12,A41C A46U C70U,-3.44
13,G61A C76U C97U,-4.24
14,A37G G77A U130G,-1.16
15,U14G C40G G69A,-3.52
16,U14C C97U,-3.31
17,A18C C20A U55C G57A G63A,-4.91
18,C3U G48A C97A,-5.8
19,U54G C56G A83C G120U,-1.88
20,A95C C123G,-0.428
21,C20A A27C,-4.9

row,Variant,polymerase ribozyme fitness (log ratio)
1,C13A U21A G47U U109A,-5.74
2,C12A C15U G52U C62A C86U G117C,-5.92
3,A74C C97U G120A G122A,-1.46
4,C15A A41U U129A,-4.72
5,G45C U78C C124A,0.349
6,G39A G113U,-2.43
7,G51A G77C A95C,-4.86
8,A6G U38G G47U G117A G120C,-5.06
9,G42U G58C C82G U87C,-2.71
10,C12G G63A C115G G117U,-4.35
11,C8U A29U C72A,-1.79
12,C8A C20A G71U,-2.77
13,C15U C28U C72G U96C,-3.94
14,G52U C104A,-2.28
15,G36C G52A,-1.54
16,C80A G127U,-3.48
17,U14A G63C A83U C86A U112A U131A,-2.09
18,U59A G77A C79U U87C C114U,-3.41
19,A50U C62U,-1.15
20,A43C C53G G61U G128A,-4.58
21,C13U G39C G58A A118U G120U,0.174

row,Variant,polymerase ribozyme fitness (log ratio)
1,G44U C114U,-2.25
2,G57A G69U C97A U132C,-3.61
3,A46C A50G,-0.277
4,C12G A46C,-1.55
5,C11U G61U U96A,-1.65
6,U54G U87A,-0.0841
7,C40G G57C C79U G93U G117C C123A,-4.88
8,G17C G60A,-4.31
9,G44U G63A,-1.62
10,U9C G69U C72G,-1.2
11,C40A A41C C115A,-2.44
12,G17A U131A,-1.99
13,C40G U54A G61C A100U,-4.7
14,C11A C12A,-1.15
15,A5G G69A,-2.1
16,G61C G110A,-3.32
17,A18U G52C G61C U87C G120C,-4.57
18,C15U C49A C62U U116A A121C U131G,-3.93
19,A6G G61U,-0.271
20,A41C G58A,-0.278
